Here are results for ten sequences from the supplement of paper PMC10724198.

± gives the standard deviation of the averaged measurements.

For series [1], the system named is Saccharomyces cerevisiae. As to the kind of experiment: protein stability index of tFT-peptide fusion (C-terminal peptide) (PSI (0-1 scale)); higher = more stable (slower turnover). The method, then:
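MPS profiling in S. cerevisiae of the tFT-X12 degron library: putative degron peptides plus stable controls, 12 aa, fused to the C-terminus of a sfGFP-mCherry timer. Cells are FACS-sorted into 8 mCherry/sfGFP bins and deep-sequenced. PSI runs from 0 (unstable) to 1 (stable). Backgrounds are wild type, das1Δ and doa10Δ at 30 °C, and wild type, das1Δ, cdc34-1 and cdc53-1 at 37 °C; 2-3 technical replicates each.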

The test system of series [2] is Saccharomyces cerevisiae. The series is described as above. Particulars: genetic background: wild type; temperature: 30 C.
Where [3] appears, read: genetic background: cdc34-1, temperature: 37 C.
The mark [4] stands for this setting: genetic background: cdc53-1, temperature: 37 C.
The mark [5] stands for this setting: genetic background: das1 deletion, temperature: 30 C.
[6] abbreviates: genetic background: das1 deletion, temperature: 37 C.
The mark [7] stands for this setting: genetic background: doa10 deletion, temperature: 30 C.
Where [8] appears, read: genetic background: wild type, temperature: 30 C.
Setting [9] is: genetic background: wild type, temperature: 37 C.
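Also: PSI is a weighted mean of sequencing reads over stability bins, variants kept only with over 10 reads, mCherry proximal and sfGFP distal, peptide attached via GGGS linker.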

In the case of WAFRLWWFFCLV, the protein stability index is 0.402 ± 0.048 with Saccharomyces cerevisiae [1] (setting [3]); 0.452 ± 0.02 in the series with Saccharomyces cerevisiae [1] (setting [4]); 0.437 ± 0.022 in the series with Saccharomyces cerevisiae [1] (setting [5]); 0.579 ± 0.067 in the series with Saccharomyces cerevisiae [1] (setting [6]); 0.277 ± 0.01 in the series on Saccharomyces cerevisiae [1] (setting [7]); 0.257 ± 0.015 with Saccharomyces cerevisiae [1] (setting [8]). For the same sequence, the figures for the protein stability index with Saccharomyces cerevisiae [1] (setting [9]) and with Saccharomyces cerevisiae [2] were 0.273 ± 0.0095 and 0.375 ± 0.034, respectively.

As to WALPRILFLRLT, the protein stability index in the series with Saccharomyces cerevisiae [1] (setting [3]) turned out to be 0.118 ± 0.074; with Saccharomyces cerevisiae [1] (setting [4]) it was 0.157 ± 0.016; in the series with Saccharomyces cerevisiae [1] (setting [5]) it was 0.359 ± 0.043; in the series with Saccharomyces cerevisiae [1] (setting [6]), 0.415 ± 0.0039; in the series with Saccharomyces cerevisiae [1] (setting [7]) it was 0.103 ± 0.00013; in the series on Saccharomyces cerevisiae [1] (setting [8]), 0.0657 ± 0.0088. Further, the protein stability index with Saccharomyces cerevisiae [1] (setting [9]) worked out at 0.0911 ± 0.021; in the series with Saccharomyces cerevisiae [2], 0.169 ± 0.028.

For the sequence WDSCVGRRGIVA, the protein stability index turned out to be 0.559 ± 0.025 in the series with Saccharomyces cerevisiae [1] (setting [3]); 0.63 ± 0.021 in the series with Saccharomyces cerevisiae [1] (setting [4]); 0.402 ± 0.035 in the series with Saccharomyces cerevisiae [1] (setting [5]); 0.62 ± 0.025 with Saccharomyces cerevisiae [1] (setting [6]); 0.388 ± 0.013 in the series with Saccharomyces cerevisiae [1] (setting [7]); 0.42 ± 0.021 in the series on Saccharomyces cerevisiae [1] (setting [8]). Further, the protein stability index came to 0.6038 ± 0.0016 in the series on Saccharomyces cerevisiae [1] (setting [9]) and 0.4869 ± 0.0015 in the series on Saccharomyces cerevisiae [2].

With WFGGVRVPRHVV, the protein stability index with Saccharomyces cerevisiae [1] (setting [3]) stood at 0.651 ± 0.034; with Saccharomyces cerevisiae [1] (setting [4]) it was 0.709 ± 0.027; in the series on Saccharomyces cerevisiae [1] (setting [5]), 0.668 ± 0.018; in the series on Saccharomyces cerevisiae [1] (setting [6]) it was 0.7484 ± 0.0044; in the series on Saccharomyces cerevisiae [1] (setting [7]), 0.394 ± 0.024; with Saccharomyces cerevisiae [1] (setting [8]), 0.448 ± 0.018. The figures for the protein stability index with Saccharomyces cerevisiae [1] (setting [9]) and with Saccharomyces cerevisiae [2] were 0.645 ± 0.026 and 0.455 ± 0.032, respectively.

Turning to WFLWWCVCLFVF, the protein stability index in the series with Saccharomyces cerevisiae [1] (setting [3]) stood at 0.312 ± 0.015; in the series with Saccharomyces cerevisiae [1] (setting [4]), 0.314 ± 0.03; in the series with Saccharomyces cerevisiae [1] (setting [5]) it was 0.304 ± 0.023; in the series on Saccharomyces cerevisiae [1] (setting [6]) it was 0.403 ± 0.018; with Saccharomyces cerevisiae [1] (setting [7]) it was 0.2527 ± 0.00072; in the series on Saccharomyces cerevisiae [1] (setting [8]), 0.255 ± 0.012. Besides, the protein stability index in the series with Saccharomyces cerevisiae [1] (setting [9]) is 0.299 ± 0.0032; in the series on Saccharomyces cerevisiae [2], 0.307 ± 0.0073.

For WFWTFIWLIMDD, the protein stability index stood at 0.435 ± 0.049 with Saccharomyces cerevisiae [1] (setting [3]); 0.501 ± 0.044 with Saccharomyces cerevisiae [1] (setting [4]); 0.388 ± 0.016 in the series with Saccharomyces cerevisiae [1] (setting [5]); 0.521 ± 0.025 in the series on Saccharomyces cerevisiae [1] (setting [6]); 0.399 ± 0.027 in the series on Saccharomyces cerevisiae [1] (setting [7]); 0.41 ± 0.039 with Saccharomyces cerevisiae [1] (setting [8]). The protein stability index in the series with Saccharomyces cerevisiae [1] (setting [9]) is 0.504 ± 0.043; in the series with Saccharomyces cerevisiae [2] it was 0.439 ± 0.0064.

WGFLRVMVDIEL: the protein stability index in the series with Saccharomyces cerevisiae [1] (setting [3]) turned out to be 0.146 ± 0.014; with Saccharomyces cerevisiae [1] (setting [4]), 0.223 ± 0.1; in the series on Saccharomyces cerevisiae [1] (setting [5]), 0.198 ± 0.024; in the series with Saccharomyces cerevisiae [1] (setting [6]), 0.32581 ± 9.3e-05; in the series on Saccharomyces cerevisiae [1] (setting [7]) it was 0.164 ± 0.0075; in the series with Saccharomyces cerevisiae [1] (setting [8]), 0.188 ± 0.023. For the same sequence, the protein stability index in the series with Saccharomyces cerevisiae [1] (setting [9]) was found to be 0.303 ± 0.017; in the series with Saccharomyces cerevisiae [2], 0.252 ± 0.016.

Take WGRTIGATFTGR: the protein stability index came to 0.698 ± 0.029 in the series with Saccharomyces cerevisiae [1] (setting [3]); 0.779 ± 0.0021 in the series on Saccharomyces cerevisiae [1] (setting [4]); 0.644 ± 0.024 with Saccharomyces cerevisiae [1] (setting [5]); 0.748 ± 0.0085 in the series with Saccharomyces cerevisiae [1] (setting [6]); 0.669 ± 0.01 in the series on Saccharomyces cerevisiae [1] (setting [7]); 0.685 ± 0.013 in the series on Saccharomyces cerevisiae [1] (setting [8]). Also, the values for the protein stability index with Saccharomyces cerevisiae [1] (setting [9]) and in the series on Saccharomyces cerevisiae [2] were 0.746 ± 0.019 and 0.595 ± 0.15, respectively.

Take WILSIVVWGKRV: the protein stability index in the series with Saccharomyces cerevisiae [1] (setting [3]) worked out at 0.2245 ± 0.0016; in the series on Saccharomyces cerevisiae [1] (setting [4]), 0.363 ± 0.068; with Saccharomyces cerevisiae [1] (setting [5]), 0.231 ± 0.025; in the series on Saccharomyces cerevisiae [1] (setting [6]) it was 0.433 ± 0.026; in the series on Saccharomyces cerevisiae [1] (setting [7]), 0.0761 ± 0.025; in the series on Saccharomyces cerevisiae [1] (setting [8]), 0.114 ± 0.017. In addition, the protein stability index with Saccharomyces cerevisiae [1] (setting [9]) amounted to 0.209 ± 0.019; in the series on Saccharomyces cerevisiae [2], 0.188 ± 0.068.

As to WMSVKLLTLRLC, the protein stability index with Saccharomyces cerevisiae [1] (setting [3]) came to 0.302 ± 0.091; in the series on Saccharomyces cerevisiae [1] (setting [4]), 0.357 ± 0.014; with Saccharomyces cerevisiae [1] (setting [5]), 0.438 ± 0.04; in the series with Saccharomyces cerevisiae [1] (setting [6]) it was 0.551 ± 0.019; with Saccharomyces cerevisiae [1] (setting [7]), 0.108 ± 0.031; in the series with Saccharomyces cerevisiae [1] (setting [8]), 0.105 ± 0.017. Further, the figures for the protein stability index in the series with Saccharomyces cerevisiae [1] (setting [9]) and in the series on Saccharomyces cerevisiae [2] were 0.124 ± 0.0049 and 0.199 ± 0.0094, respectively.
